Results on 2 molecules are retold here after patent US20220267402A1 (SERPENTIDE, published 2022).

In assay [1] the target is human GLP1 receptor (on HEK293-CNG-HuGLP1R stable cells) (human) (UniProt P43220). Nature of the assay: cell-based or functional assay.
For assay [2], the target named is human GLP1 receptor (on HEK293-CNG-HuGLP1R stable cells) (human, UniProt P43220 24-463). Nature of the assay: cell-based or functional assay.

“Eli Lilly Trulicity (Lot#02448599) (Fc fusion)” gave an EC50, cAMP bioassay on HEK293-CNG-HuGLP1R cells in assay [1] of 22 nM.

B1: p9: hGLP1R ECD (1-116)-3xG4S-RGER-Trulicity (lot U2243DL140-14/P9EA001) (Fc fusion)
chain: RPQGATVSLWETVQKWREYRRQCQRSLTEDPPPATDLFCNRTFDEYACWPDGEPGSFVNVSCPWYLPWASSVPQGHVYRFCTAEGLWLQKDNSSLPWRDLSECEESKGGGGSGGGGSGGGGSRGERHGEGTFTSDVSSYLEEQAAKEFIAWLVKGGGGGGGSGGGGSGGGGSAESKYGPPCPPCPAPEAAGGPSVFLFPPKPKDTLMISRTPEVTCVVVDVSQEDPEVQFNWYVDGVEVHNAKTKPREEQFNSTYRVVSVLTVLHQDWLNGKEYKCKVSNKGLPSSIEKTISKAKGQPREPQVYTLPPSQEMTKNQVSLTCLVKGFYPSDIAVEWESNGQPENNYKTTPPVLDSDGSFFLYSRLTVDKSRWQEGNVFSCSVMHEALHNHYTQKSLSLSLG
For the molecule B1, the “EC50, cAMP bioassay on HEK293-CNG-HuGLP1R cells (after Factor Xa predigestion)” value in assay [2] is 17.6 nM.
